# Reference: US20200030416A1 (CASE WESTERN RESERVE UNIVERSITY, published 2020)
# Target: T1, integrin GPIIb-IIIa on ADP-activated human platelets (human, UniProt P08514 32-1039; P05106 27-788)
# T1 construct: whole, on cells; no isolated integrin was tested; also called active platelet GPIIb-IIIa
# Assay: human platelets (low platelet concentration, ADP) incubated on coverslips coated with cRGD-modified biotinylated liposomes; anti-CD62P fluorescence microscopy
# Method: LPC was obtained as described previously and incubated with the construct-coated coverslips for 1 hr in the absence or in presence of platelet agonist ADP, under gentle agitation. Post-incubation, the coverslips were gently washed with PBS to remove loosely-bound platelets from the construct-coated surface. […] These stained coverslips were mounted onto glass slides and the fluorescence of active platelets aggregated onto the coverslips was imaged using inverted fluorescence microscopy. […] Platelet aggregation was quantified as the percentage of coverslip surface area covered by platelet fluorescence. All statistical analysis was performed using ANOVA and significance was considered as p<0.05.
binder,measurement,value
"CNPRGDYRC (not fully specified; cyclised by a disulphide between the terminal cysteines; Y(OEt) = O-ethyl tyrosine; N-terminus conjugated to DSPE-PEG2000-COOH; many copies on a ~150 nm liposome, Tested only as a multivalent decoration on liposomes (2.5 mol %); also called GBP) [cyclic RGD peptide cyclo-CNPRGDY(OEt)RC (cRGD), conjugated to DSPE-PEG and displayed on liposomes]",binding result,binds
